Measurements reported in CN114195890A (UNIV SHANGHAI TRAFFIC, dated 2022).

Biological target: T1, 抗原K27-3Ub (化学合成的K27连接泛素链蛋白) (UniProt P0CG48 1-76, ubiquitin units joined through K27 linkages (K27 of one ubiquitin to the C-terminus of the next); biotinylated (biotin-K27-3Ub) in the ELISA)
T1 construct: Chemically synthesised K27-linked tri-ubiquitin provided by the Liu Lei group, Tsinghua University; also called biotin-K27-3Ub; K27泛素链
Test: SPR, Biacore 8K, antibody captured on Protein A chip, K27-3Ub as analyte, 1:1 fit

Kd: 3.66 nM
koff: 0.00234 s⁻¹
B1: 全长抗体蛋白IgG.zl1901 (antibody, V domains shown)
VH: EVQLVESGAEVKKPGASVKVSCKASGYTFTSYYMHWVRQAPGQGLEWMGIINPSGGSTSYAQKFQGRVTMTRDTSTSTVYMELSSLRSEDTAVYYCARGLRAELLHYYYGMDVWGQGTTVTVSS
VL: not shown
notes: also called 全长抗体IgG.zl1901
